B1: EpEX (EpCAM extracellular part, residues 24-265, with mutated N-glycosylation sites N74Q, N111Q and N198Q) (domain or fragment, human)
chain: QEECVCENYKLAVNCFVNNNRQCQCTSVGAQNTVICSKLAAKCLVMKAEMQGSKLGRRAKPEGALQNNDGLYDPDCDESGLFKAKQCQGTSMCWCVNTAGVRRTDKDTEITCSERVRTYWIIIELKHKAREKPYDSKSLRTALQKEITTRYQLDPKFITSILYENNVITIDLVQQSSQKTQNDVDIADVAYYFEKDVKGESLFHSKKMDLTVNGEQLDLDPGQTLIYYVDEKAPEFSMQGLKLE
notes: Epithelial cell adhesion molecule (EpCAM, CD326), human, extracellular part EpEX, residues 24-265, N-glycosylation sites mutated; residues translated from the XhoI scar, between K265 and the His6-tag; in solution it is a dimer in equilibrium with a small amount of monomer; also called wild type-like EpEX; non-glycosylated EpEX variant; source: Sf9 insect cells (baculovirus), culture supernatant, …
B2: EpEX L264C (domain or fragment, human)
chain: QEECVCENYKLAVNCFVNNNRQCQCTSVGAQNTVICSKLAAKCLVMKAEMQGSKLGRRAKPEGALQNNDGLYDPDCDESGLFKAKQCQGTSMCWCVNTAGVRRTDKDTEITCSERVRTYWIIIELKHKAREKPYDSKSLRTALQKEITTRYQLDPKFITSILYENNVITIDLVQQSSQKTQNDVDIADVAYYFEKDVKGESLFHSKKMDLTVNGEQLDLDPGQTLIYYVDEKAPEFSMQGCKLE
modifications: disulfide bond between the introduced cysteine residues (C264) of the two subunits
notes: residues translated from the XhoI scar, between K265 and the His6-tag; Derived from m1; the protein is a constitutive dimer of two subunits linked by a disulfide; PDB 4mzv is the parent EpEX; also called disulfide-stabilized dimeric form; covalently stabilized EpEX dimer; source: Sf9 insect cells (baculovirus), culture supernatant, purified (His-tag column, ion exchange, SEC); not shown: His6, …

Molecular target: the molecule itself
Experiment: SEC-MALS; SEC with right- and low-angle laser light scattering detectors (SEC-RALLS/LALLS, OMNISEC), Superdex 200 Increase 10/300 GL, 150 μg of protein injected per run, 25 °C, 0.5 ml/min, 20 mM HEPES, pH 7.5, 100 mM NaCl; dimer to monomers

Protein	stoichiometry N
B1	2
B2	2
